Source: the supplement of paper PMC9732359
± gives the uncertainty stated by the source.

Assay: protein stability index of a GFP-peptide fusion (yeast GPS) (PSI 1-4); higher = more stable; sorted into four equal gates, so the index is relative within each strain
Summary of the method: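 Peptides tiling yeast proteins in 17-residue segments were fused downstream of GFP, with Cherry expressed from the same plasmid. As a pooled library in yeast, mid-log cultures grown in leucine-free medium were sorted into four equal gates by GFP/Cherry fluorescence ratio. Gate plasmids were PCR-amplified and Illumina-sequenced, and barcodes linked reads to strains. Each peptide received a protein stability index equal to the sum of each gate's read frequency times its gate number.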

QSSSSTRSHEYGRKSFR [REC8]
protein stability index (doa10∆): 2.83 ± 0.11
protein stability index (pdr5∆): 2.92 ± 0.099
protein stability index (san1∆): 2.84 ± 0.12
protein stability index (ubr1∆): 3.2 ± 0.13

LLGKDNEDDALIYGISD [AAR2]
protein stability index (doa10∆): 3.22 ± 0.12
protein stability index (pdr5∆): 3.14 ± 0.14
protein stability index (san1∆): 3.11 ± 0.1
protein stability index (ubr1∆): 2.7 ± 0.14

NVRDDMKPSDNISTNTN [SSN2]
protein stability index (doa10∆): 3.1 ± 0.045
protein stability index (pdr5∆): 2.94 ± 0.049
protein stability index (san1∆): 2.88 ± 0.051
protein stability index (ubr1∆): 3.04 ± 0.053

QSQQAQPSDVMFNDLNS [MED2]
protein stability index (doa10∆): 3.1 ± 0.057
protein stability index (pdr5∆): 3.37 ± 0.078
protein stability index (san1∆): 3.44 ± 0.063
protein stability index (ubr1∆): 3.11 ± 0.095

VNCFHEDTELYQELIKN [YJL039C/NUP192]
protein stability index (doa10∆): 2.13 ± 0.12
protein stability index (pdr5∆): 2.82 ± 0.16
protein stability index (san1∆): 2.83 ± 0.081
protein stability index (ubr1∆): 2.67 ± 0.056

AAELLDKRIVISIDSWP [DIS3]
protein stability index (doa10∆): 1.61 ± 0.062
protein stability index (pdr5∆): 1.87 ± 0.09
protein stability index (san1∆): 1.55 ± 0.14
protein stability index (ubr1∆): 1.95 ± 0.072

HGMTLRESFEDNVVRFL [RPO21]
protein stability index (doa10∆): 3.27 ± 0.098
protein stability index (pdr5∆): 3.09 ± 0.12
protein stability index (san1∆): 3.29 ± 0.089
protein stability index (ubr1∆): 3.17 ± 0.078

QQVVCIFSYGPHIQKML [POP6]
protein stability index (doa10∆): 1.66 ± 0.053
protein stability index (pdr5∆): 1.77 ± 0.047
protein stability index (san1∆): 1.74 ± 0.11
protein stability index (ubr1∆): 2.07 ± 0.054

VRTHMRNMIIVPEMIGS [RPS15]
protein stability index (doa10∆): 1.25 ± 0.059
protein stability index (pdr5∆): 1.47 ± 0.06
protein stability index (san1∆): 1.39 ± 0.12
protein stability index (ubr1∆): 1.54 ± 0.05

EEGINKFKKEKFDIIIV [SRP54]
protein stability index (doa10∆): 2.58 ± 0.05
protein stability index (pdr5∆): 2.61 ± 0.042
protein stability index (san1∆): 2.92 ± 0.043
protein stability index (ubr1∆): 2.69 ± 0.057

QPKDLRAKKTRALRRAL [RPL35A]
protein stability index (ubr1∆): 3.1 ± 0.15

NENENFGYDIPLLDIVL [YML103C/NUP188]
protein stability index (doa10∆): 2.48 ± 0.053
protein stability index (pdr5∆): 2.81 ± 0.064
protein stability index (san1∆): 2.92 ± 0.049
protein stability index (ubr1∆): 2.56 ± 0.056

IGISIVGRFSTISSADF [ECM29]
protein stability index (doa10∆): 2.81 ± 0.24
protein stability index (pdr5∆): 2.54 ± 0.092
protein stability index (san1∆): 3.12 ± 0.3
protein stability index (ubr1∆): 2.26 ± 0.19

VYAQQSTVQTPITASMA [PGD1]
protein stability index (doa10∆): 1.59 ± 0.056
protein stability index (pdr5∆): 1.95 ± 0.079
protein stability index (san1∆): 1.51 ± 0.09
protein stability index (ubr1∆): 1.86 ± 0.042

PKELVPSHEKLKESYSQ [CDC53]
protein stability index (doa10∆): 3.13 ± 0.077
protein stability index (pdr5∆): 3.02 ± 0.067
protein stability index (san1∆): 2.51 ± 0.14
protein stability index (ubr1∆): 2.81 ± 0.073

TQAIADIVQYHLELYTS [PRE3]
protein stability index (doa10∆): 2.07 ± 0.064
protein stability index (pdr5∆): 1.72 ± 0.057
protein stability index (san1∆): 1.77 ± 0.069
protein stability index (ubr1∆): 2.01 ± 0.042

EGHDWKAPTKLDDPEAV [DIS3]
protein stability index (doa10∆): 3.31 ± 0.057
protein stability index (pdr5∆): 3.28 ± 0.054
protein stability index (san1∆): 3.23 ± 0.041
protein stability index (ubr1∆): 3.25 ± 0.046

KKKKKGSNQKPKYEPPV [RPT2]
protein stability index (doa10∆): 2.94 ± 0.11
protein stability index (pdr5∆): 2.96 ± 0.12
protein stability index (san1∆): 2.38 ± 0.22
protein stability index (ubr1∆): 3.12 ± 0.076

PSFGKRHNKSHTLCNRC [RPL37A]
protein stability index (doa10∆): 2.54 ± 0.1
protein stability index (pdr5∆): 2.84 ± 0.08
protein stability index (san1∆): 2.97 ± 0.12
protein stability index (ubr1∆): 2.68 ± 0.21

TEQTKSKNPLSLTEATK [YLR335W/NUP2]
protein stability index (doa10∆): 3.08 ± 0.045
protein stability index (pdr5∆): 2.97 ± 0.053
protein stability index (san1∆): 2.91 ± 0.062
protein stability index (ubr1∆): 3.14 ± 0.051

SFVHGVVGQLFQIDNDN [SMC2]
protein stability index (doa10∆): 3.11 ± 0.16
protein stability index (pdr5∆): 3.13 ± 0.12
protein stability index (san1∆): 3.13 ± 0.068
protein stability index (ubr1∆): 3.25 ± 0.13

GIKPPKGVLLYGPPGTG [RPT4]
protein stability index (doa10∆): 2.73 ± 0.13
protein stability index (pdr5∆): 2.62 ± 0.072
protein stability index (san1∆): 2.22 ± 0.22
protein stability index (ubr1∆): 2.01 ± 0.075

DKINKYSLIRETNGYDP [SNF5]
protein stability index (doa10∆): 1.51 ± 0.086
protein stability index (pdr5∆): 1.62 ± 0.12
protein stability index (san1∆): 1.92 ± 0.2
protein stability index (ubr1∆): 1.23 ± 0.19

ECGTGTTIHTFNRKENP [RPN14]
protein stability index (doa10∆): 2.11 ± 0.18
protein stability index (pdr5∆): 2.5 ± 0.1
protein stability index (san1∆): 2.21 ± 0.12
protein stability index (ubr1∆): 2.05 ± 0.13

QLIDQFEWDISNSDNCP [SNF5]
protein stability index (doa10∆): 3.02 ± 0.092
protein stability index (pdr5∆): 3.18 ± 0.12
protein stability index (san1∆): 3.21 ± 0.058
protein stability index (ubr1∆): 3.27 ± 0.065

HRDAYSGGSVNLYHVTE [PRE2]
protein stability index (doa10∆): 2.81 ± 0.11
protein stability index (pdr5∆): 3.32 ± 0.086
protein stability index (san1∆): 3 ± 0.07
protein stability index (ubr1∆): 3.03 ± 0.073

PILVTLVSDSEIIDLNL [POP6]
protein stability index (doa10∆): 2.29 ± 0.058
protein stability index (pdr5∆): 2.47 ± 0.046
protein stability index (san1∆): 2.36 ± 0.074
protein stability index (ubr1∆): 2.74 ± 0.054
